Results from patent US8598314B2 (priority 2007, dated 2013).
Where no end group is shown, it is not given here. [ ]: non-standard residue; d: D form. NMeY = CN[C@@H](Cc1ccc(O)cc1)C(=O)O

Key:
[1] = Peptide stability in human kidney brush border membranes; settings: Table 6
Procedure: The tubes were incubated in VorTemp 56™ (Eurotech Labs, UK) at 37° C. vortexed at 500 RPM. At time points of 0, 1, 2, 3, 4, and 5 hours, 200 μl STOP solution (50% ACN, 1% formic acid) was added to a given tube, and the samples were allowed to incubate until the end of the experiment. The samples were collected after 5 hours, centrifuged, and 200 μl of the supernatants were transferred into mass spectrometry vials. The intensities of the mother ions in each vial were analyzed with API 150EX™ mass spectrometer (Applied Biosystems, Foster City, Calif.) and quantified using the ANALYST™ program.
The hKBBM assay was also performed in the presence of valinepyrrolidide, a DPP-IV inhibitor.

[2] = test system: NIH/Swiss female mice; test: Transient effect on blood glucose and body weight; type: in vivo; settings: 250 nmol/kg subcutaneous injection; for effect on body weight (in words): FIGS. 14B and 15B; for return of body weight to pre-treatment levels (in words): day 5, FIG. 15B
Procedure: A subcutaneous injection (200 μL) of vehicle (PBS) or test compound was given to NIH/Swiss female mice immediately following baseline glucose and body weight measurement. Tail blood glucose samples were measured (OneTouch® Ultra®, LifeScan Inc., Milpitas, Calif.) at baseline (time=0) and 2, 4, 8, 24, 48, 72 and 96 hrs. Body weight was measured daily. Significant test sample effects were identified by ANONA (p<0.05) followed by Dunnett's post test (GraphPad PRISM®, version 4.00 for Windows, GraphPad Software, San Diego, Calif.). Points in FIG. 14A, FIG. 14B, FIG. 15A and FIG. 15B represent mean±SD (standard deviation).

[3] = test system: plasma carboxypeptidase; test: Carboxypeptidase activity assay, PYY(3-36) in human plasma; type: biochemical; settings: 0.5 mM in human plasma, FIGS. 10-12
Procedure: Carboxypeptidase activity assays were performed in the presence of various agents to test for carboxypeptidase inhibitor activity of the agents.
The remainder of the sample was placed in an incubator at 37° C., mixing at 600 RPM for sixty minutes. At 10 minute intervals, a 100 μl sample of the mixture was removed and transferred to a separate microcentrifuge tubes. Following the transfer of the 100 μL sample at the zero time point and each 10 minute interval, each collected sample was extracted by slow addition of 100 μl cold 0.2% formic acid:acetonitrile, while mixing. After addition of the acetonitrile solution, the sample was vortex mixed at high speed for 15 seconds. The extracted samples were stored at −20° C. for at least 20 minutes and then centrifuged at 11,000×g for 10 minutes at 5° C. The supernatant of each sample was transferred to a new microcentrifuge tube, centrifuged again, and finally transferred for LC/MS analysis. The MS analysis was a Q1 single ion monitoring method that detects the most intense ion of the parent molecule and the peptide fragment of interest.

## CC[C@H](C)[C@H](NC(=O)[C@H](Cc1ccccc1)NC(=O)[C@H](CC(C)C)NC(=O)[C@H](CCCNC(=N)N)NC(=O)[C@@H](NC(=O)[C@H](C)NC(=O)[C@H](CCC(=O)O)NC(=O)[C@H](CCC(=O)O)NC(=O)[C@H](CCC(=O)O)NC(=O)[C@H](CC(C)C)NC(=O)[C@H](CCC(N)=O)NC(=O)[C@H](CCCCN)NC(=O)[C@H](CO)NC(=O)[C@H](CC(C)C)NC(=O)[C@H](CC(=O)O)NC(=O)[C@H](CO)NC(=O)[C@@H](NC(=O)[C@H](Cc1ccccc1)NC(=O)[C@@H](NC(=O)CNC(=O)[C@H](CCC(=O)O)NC(=O)CNC(=O)[C@@H](N)Cc1c[nH]cn1)[C@@H](C)O)[C@@H](C)O)C(C)C)C(=O)N[C@@H](CCC(=O)O)C(=O)N[C@@H](Cc1c[nH]c2ccccc12)C(=O)N[C@@H](CC(C)C)C(=O)N[C@@H](CCCCN)C(=O)N[C@@H](CCC(N)=O)C(=O)NCC(=O)NCC(=O)N1CCC[C@H]1C(=O)N[C@@H](CO)C(=O)N[C@@H](CCCCN)C(=O)N[C@@H](CCC(=O)O)C(=O)N[C@H](C(=O)N[C@H](C(=O)N[C@@H](CO)C(=O)NCCCC(=O)NCCOCCOCC(=O)NCCCC(=O)NCCCCC(N)C(=O)N1CCSC1)[C@@H](C)CC)[C@@H](C)CC (stereo partly drawn) [Compound 5932]
[1]
  Stability in hKBBM: 63%
[2]
  effect on body weight (in words): decrease in body weight, measurable at day 2
  return of body weight to pre-treatment levels (in words): body weight does not return to pre-treatment levels by day 5

## CC[C@H](C)[C@H](NC(=O)[C@H](Cc1ccccc1)NC(=O)[C@H](CC(C)C)NC(=O)[C@H](CCCNC(=N)N)NC(=O)[C@@H](NC(=O)[C@H](C)NC(=O)[C@H](CCC(=O)O)NC(=O)[C@H](CCC(=O)O)NC(=O)[C@H](CCC(=O)O)NC(=O)[C@H](CC(C)C)NC(=O)[C@H](CCC(N)=O)NC(=O)[C@H](CCCCN)NC(=O)[C@H](CO)NC(=O)[C@H](CC(C)C)NC(=O)[C@H](CC(=O)O)NC(=O)[C@H](CO)NC(=O)[C@@H](NC(=O)[C@H](Cc1ccccc1)NC(=O)[C@@H](NC(=O)CNC(=O)[C@H](CCC(=O)O)NC(=O)CNC(=O)[C@@H](N)Cc1c[nH]cn1)[C@@H](C)O)[C@@H](C)O)C(C)C)C(=O)N[C@@H](CCC(=O)O)C(=O)N[C@@H](Cc1c[nH]c2ccccc12)C(=O)N[C@@H](CC(C)C)C(=O)N[C@@H](CCCCN)C(=O)N[C@@H](CCC(N)=O)C(=O)NCC(=O)NCC(=O)N1CCC[C@H]1C(=O)N[C@@H](CO)C(=O)N[C@@H](CCCCN)C(=O)N[C@@H](CCC(=O)O)C(=O)N[C@H](C(=O)N[C@H](C(=O)N[C@@H](CO)C(=O)NCCCC(=O)NCCOCCOCC(=O)NCCCC(=O)NCCCCC(N)C(=O)N1CCC[C@H]1C#N)[C@@H](C)CC)[C@@H](C)CC (stereo partly drawn) [Compound 5933]
[1]
  Stability in hKBBM: 87%
[2]
  effect on body weight (in words): decrease in body weight, measurable at day 2 which continues at least through day 5

## CC[C@H](C)[C@H](NC(=O)[C@H](Cc1ccccc1)NC(=O)[C@H](CC(C)C)NC(=O)[C@H](CCCNC(=N)N)NC(=O)[C@@H](NC(=O)[C@H](C)NC(=O)[C@H](CCC(=O)O)NC(=O)[C@H](CCC(=O)O)NC(=O)[C@H](CCC(=O)O)NC(=O)[C@H](CC(C)C)NC(=O)[C@H](CCC(N)=O)NC(=O)[C@H](CCCCN)NC(=O)[C@H](CO)NC(=O)[C@H](CC(C)C)NC(=O)[C@H](CC(=O)O)NC(=O)[C@H](CO)NC(=O)[C@@H](NC(=O)[C@H](Cc1ccccc1)NC(=O)[C@@H](NC(=O)CNC(=O)[C@H](CCC(=O)O)NC(=O)CNC(=O)[C@@H](N)Cc1c[nH]cn1)[C@@H](C)O)[C@@H](C)O)C(C)C)C(=O)N[C@@H](CCC(=O)O)C(=O)N[C@@H](Cc1c[nH]c2ccccc12)C(=O)N[C@@H](CC(C)C)C(=O)N[C@@H](CCCCN)C(=O)N[C@@H](CCC(N)=O)C(=O)NCC(=O)NCC(=O)N1CCC[C@H]1C(=O)N[C@@H](CO)C(=O)N[C@@H](CCCCN)C(=O)N[C@@H](CCC(=O)O)C(=O)N[C@H](C(=O)N[C@H](C(=O)N[C@@H](CO)C(=O)NCCOCCOCC(=O)NCCCC[C@H](N)C(=O)N1CC[S+]([O-])C1)[C@@H](C)CC)[C@@H](C)CC (stereo partly drawn) [Compound 5934]
[1]
  Stability in hKBBM: 97%

## CC[C@H](C)[C@H](NC(=O)[C@H](Cc1ccccc1)NC(=O)[C@H](CC(C)C)NC(=O)[C@H](CCCNC(=N)N)NC(=O)[C@@H](NC(=O)[C@H](C)NC(=O)[C@H](CCC(=O)O)NC(=O)[C@H](CCC(=O)O)NC(=O)[C@H](CCC(=O)O)NC(=O)[C@H](CC(C)C)NC(=O)[C@H](CCC(N)=O)NC(=O)[C@H](CCCCN)NC(=O)[C@H](CO)NC(=O)[C@H](CC(C)C)NC(=O)[C@H](CC(=O)O)NC(=O)[C@H](CO)NC(=O)[C@@H](NC(=O)[C@H](Cc1ccccc1)NC(=O)[C@@H](NC(=O)CNC(=O)[C@H](CCC(=O)O)NC(=O)CNC(=O)[C@@H](N)Cc1c[nH]cn1)[C@@H](C)O)[C@@H](C)O)C(C)C)C(=O)N[C@@H](CCC(=O)O)C(=O)N[C@@H](Cc1c[nH]c2ccccc12)C(=O)N[C@@H](CC(C)C)C(=O)N[C@@H](CCCCN)C(=O)N[C@@H](CCC(N)=O)C(=O)NCC(=O)NCC(=O)N1CCC[C@H]1C(=O)N[C@@H](CO)C(=O)N[C@@H](CCCCN)C(=O)N[C@@H](CCC(=O)O)C(=O)N[C@H](C(=O)N[C@H](C(=O)N[C@@H](CO)C(=O)NCCOCCOCC(=O)NCCCCC(N)C(=O)N1CCSC1)[C@@H](C)CC)[C@@H](C)CC (stereo partly drawn) [Compound 5953]
[1]
  Stability in hKBBM: 76%

## CC[C@H](C)[C@H](NC(=O)[C@H](Cc1ccccc1)NC(=O)[C@H](CC(C)C)NC(=O)[C@H](CCCNC(=N)N)NC(=O)[C@@H](NC(=O)[C@H](C)NC(=O)[C@H](CCC(=O)O)NC(=O)[C@H](CCC(=O)O)NC(=O)[C@H](CCC(=O)O)NC(=O)[C@H](CC(C)C)NC(=O)[C@H](CCC(N)=O)NC(=O)[C@H](CCCCN)NC(=O)[C@H](CO)NC(=O)[C@H](CC(C)C)NC(=O)[C@H](CC(=O)O)NC(=O)[C@H](CO)NC(=O)[C@@H](NC(=O)[C@H](Cc1ccccc1)NC(=O)[C@@H](NC(=O)CNC(=O)[C@H](CCC(=O)O)NC(=O)CNC(=O)[C@@H](N)Cc1c[nH]cn1)[C@@H](C)O)[C@@H](C)O)C(C)C)C(=O)N[C@@H](CCC(=O)O)C(=O)N[C@@H](Cc1c[nH]c2ccccc12)C(=O)N[C@@H](CC(C)C)C(=O)N[C@@H](CCCCN)C(=O)N[C@@H](CCC(N)=O)C(=O)NCC(=O)NCC(=O)N1CCC[C@H]1C(=O)N[C@@H](CO)C(=O)N[C@@H](CCCCN)C(=O)N[C@@H](CCC(=O)O)C(=O)N[C@H](C(=O)N[C@H](C(=O)N[C@@H](CO)C(=O)NCCOCCOCC(=O)NCCCC[C@H](N)C(=O)N1CCC[C@H]1C#N)[C@@H](C)CC)[C@@H](C)CC [Compound 5954, [^14Leu,^28Gln]Exendin-4-(1-32)-fGLP-1-(33-37)-miniPEG-(S)-2,6-diamino-1-(pyrrolidin-2-cyano-1-yl)hexan-1-amide]
[1]
  Stability in hKBBM: 57%

## CC[C@H](C)[C@H](NC(=O)[C@H](Cc1ccccc1)NC(=O)[C@H](CC(C)C)NC(=O)[C@H](CCCNC(=N)N)NC(=O)[C@@H](NC(=O)[C@H](C)NC(=O)[C@H](CCC(=O)O)NC(=O)[C@H](CCC(=O)O)NC(=O)[C@H](CCC(=O)O)NC(=O)[C@H](CC(C)C)NC(=O)[C@H](CCC(N)=O)NC(=O)[C@H](CCCCN)NC(=O)[C@H](CO)NC(=O)[C@H](CC(C)C)NC(=O)[C@H](CC(=O)O)NC(=O)[C@H](CO)NC(=O)[C@@H](NC(=O)[C@H](Cc1ccccc1)NC(=O)[C@@H](NC(=O)CNC(=O)[C@H](CCC(=O)O)NC(=O)CNC(=O)[C@@H](N)Cc1c[nH]cn1)[C@@H](C)O)[C@@H](C)O)C(C)C)C(=O)N[C@@H](CCC(=O)O)C(=O)N[C@@H](Cc1c[nH]c2ccccc12)C(=O)N[C@@H](CC(C)C)C(=O)N[C@@H](CCCCN)C(=O)N[C@@H](CCC(N)=O)C(=O)NCC(=O)NCC(=O)N1CCC[C@H]1C(=O)N[C@@H](CO)C(=O)N[C@@H](CCCCN)C(=O)N[C@@H](CCC(=O)O)C(=O)N[C@H](C(=O)N[C@H](C(=O)N[C@@H](CO)C(=O)NCCCC(=O)NCCOCCOCC(=O)NCCCC(=O)NCCCCC(N)C(=O)N1CCS(=O)(=O)C1)[C@@H](C)CC)[C@@H](C)CC (stereo partly drawn) [Compound 5955]
[1]
  Stability in hKBBM: 36%
[2]
  effect on body weight (in words): decrease in body weight, measurable at day 2
  return of body weight to pre-treatment levels (in words): body weight returns to pre-treatment levels by day 5

## ^36N-methyl-Tyr-amide-PYY(34-36) (Gln-Arg-[NMeY]-NH2; N-terminus assumed; SMILES CN(C(=O)[C@H](CCCNC(=N)N)NC(=O)[C@@H](N)CCC(N)=O)[C@@H](Cc1ccc(O)cc1)C(N)=O) [N-terminal truncation of 36N-methyl-Tyr-amide-PYY(3-36)]
[3]
  inhibition of the formation of PYY(3-35) (in words): did not inhibit
